Experimental data published in US9914914B2, “Polymerase capable of producing non-DNA nucleotide polymers” (Medical Research Council, priority 2012, dated 2018).
Changes are numbered by the printed parent chain. Numbers in names are those of the source. Entries after “also recorded” stand apart in the source; their conditions may differ.

B1: Therminator: 9° N exo−: A485L polymerase, commercial (protein, listed as Thermococcus gorgonarius)
chain: MILDTDYITEDGKPVIRIFKKENGEFKIDYDRNFEPYIYALLKDDSAIEDVKKITAERHGTTVRVVRAEKVKKKFLGRPIEVWKLYFTHPQDVPAIRDKIKEHPAVVDIYEYDIPFAKRYLIDKGLIPMEGDEELKMLAFDIETLYHEGEEFAEGPILMISYADEEGARVITWKNIDLPYVDVVSTEKEMIKRFLKVVKEKDPDVLITYNGDNFDFAYLKKRSEKLGVKFILGREGSEPKIQRMGDRFAVEVKGRIHFDLYPVIRRTINLPTYTLEAVYEAIFGQPKEKVYAEEIAQAWETGEGLERVARYSMEDAKVTYELGKEFFPMEAQLSRLVGQSLWDVSRSSTGNLVEWFLLRKAYERNELAPNKPDERELARRRESYAGGYVKEPERGLWENIVYLDFRSLYPSIIITHNVSPDTLNREGCEEYDVAPQVGHKFCKDFPGFIPSLLGDLLEERQKVKKKMKATIDPIEKKLLDYRQRLIKILANSFYGYYGYAKARWYCKECAESVTAWGRQYIETTIREIEEKFGFKVLYADTDGFFATIPGADAETVKKKAKEFLDYINAKLPGLLELEYEGFYKRGFFVTKKKYAVIDEEDKITTRGLEIVRRDWSEIAKETQARVLEAILKHGDVEEAVRIVKEVTEKLSKYEVPPEKLVIYEQITRDLKDYKATGPHVAVAKRLAARGIKIRPGTVISYIVLKGSGRIGDRAIPFDEFDPAKHKYDAEYYIENQVLPAVERILRAFGYRKEDLRYQKTRQVGLGAWLKPKT
B2: RT-521: Tgo V93Q, D141A, E143A, A485L, I521L, K726R, E429G; SEQ ID NO:12 (protein)
chain: B1 chain with V93Q, D141A, E143A, E429G, I521L, K726R
modifications: T. go derived RT-521 polymerase
B3: RT-521K: Tgo V93Q, D141A, E143A, A485L, I521L, E664K, K726R, A385V; SEQ ID NO:14 (protein)
chain: B1 chain with V93Q, D141A, E143A, A385V, E429G, F445L, I521L, E664K, K726R
modifications: T. go derived polymerase designated RT-521K
B4: Dpo4: commercial DNA polymerase (protein, UniProt Q97W02 1-352, looked up)
DNA polymerase IV: MIVLFVDFDYFYAQVEEVLNPSLKGKPVVVCVFSGRFEDSGAVATANYEARKFGVKAGIPIVEAKKILPNAVYLPMRKEVYQQVSSRIMNLLREYSEKIEIASIDEAYLDISDKVRDYREAYNLGLEIKNKILEKEKITVTVGISKNKVFAKIAADMAKPNGIKVIDDEEVKRLIRELDIADVPGIGNITAEKLKKLGINKLVDTLSIEFDKLKGMIGEAKAKYLISLARDEYNEPIRTRVRKSIGRIVTMKRNSRNLEEIKPYLFRAIEESYYKLDKRIPKAIHVVAVTEDLDIVSRGRTFPHGISKETAYSESVKLLQKILEEDERKIRRIGVRFSKFIEAIGLDKFFDT
B5: D4K: Tgo polymerase with V93Q, D141A, E143A, L403P, A485L, P657T, E658Q, K659H, Y663H, E664K, D669A, K671N, T676I; SEQ ID NO:5 (protein)
chain: MILDTDYITEDGKPVIRIFKKENGEFKIDYDRNFEPYIYALLKDDSAIEDVKKITAERHGTTVRVVRAEKVKKKFLGRPIEVWKLYFTHPQDQPAIRDKIKEHPAVVDIYEYDIPFAKRYLIDKGLIPMEGDEELKMLAFAIATLYHEGEEFAEGPILMISYADEEGARVITWKNIDLPYVDVVSTEKEMIKRFLKVVKEKDPDVLITYNGDNFDFAYLKKRSEKLGVKFILGREGSEPKIQRMGDRFAVEVKGRIHFDLYPVIRRTINLPTYTLEAVYEAIFGQPKEKVYAEEIAQAWETGEGLERVARYSMEDAKVTYELGKEFFPMEAQLSRLVGQSLWDVSRSSTGNLVEWFLLRKAYERNELAPNKPDERELARRRESYAGGYVKEPERGLWENIVYPDFRSLYPSIIITHNVSPDTLNREGCEEYDVAPQVGHKFCKDFPGFIPSLLGDLLEERQKVKKKMKATIDPIEKKLLDYRQRLIKILANSFYGYYGYAKARWYCKECAESVTAWGRQYIETTIREIEEKFGFKVLYADTDGFFATIPGADAETVKKKAKEFLDYINAKLPGLLELEYEGFYKRGFFVTKKKYAVIDEEDKITTRGLEIVRRDWSEIAKETQARVLEAILKHGDVEEAVRIVKEVTEKLSKYEVPTQHLVIHKQITRALNDYKAIGPHVAVAKRLAARGIKIRPGTVISYIVLKGSGRIGDRAIPFDEFDPAKHKYDAEYYIENQVLPAVERILRAFGYRKEDLRYQKTRQVGLGAWLKPKT
modifications: Polymerase D4YK derived from T. gorgonarius
B6: D4K521: D4K with the further mutation I521L, SEQ ID NO:7 (protein)
chain: B5 chain with I521L
modifications: Mutant polymerase D4YK with I521L mutation, derived from T. gorgonarius
B7: D4: prior art TgoT-derived RNA polymerase with E664Q, SEQ ID NO:3 (protein)
chain: B5 chain with P403L, K664Q
modifications: Prior art T. gorgonarius (Tgo) derived polymerase D4 with mutated patch 10 region

Tests used:
[1] = system: Ramos; assay: IC50 of nucleoside drugs and TempN polymer on Ramos cells; format: cell-based; settings: Homo sapiens
Procedure: The polymer linked to the targeting protein was then mixed with Nanocargo transfection reagent according to the manufacturer's instructions (Tecrea, UK), and added to Ramos cells at a final concentration of 40 nM (polymer concentration). After 96 hours incubation in a humidified atmosphere at 37° C. (5% CO2), WST-1 reagent (Roche, UK) was added to the cells to measure cell growth inhibition (FIG. 42). […] Only when the toxic polymer is targeted to the Ramos cells via CD20 is cell growth inhibited.

[2] = system: CCRF-CEM; assay: IC50 of nucleoside drugs and TempN polymer on CCRF-CEM cells; format: cell-based; settings: Homo sapiens
[3] = system: FANA template; assay: FANA reverse transcriptase screen (PCR from cDNA); format: biochemical; settings: judged by PCR from the cDNA
Procedure: ANA and FANA were synthesised using D4YK from DNA primers against a biotinylated template. This was captured onto streptavidin-coated paramagnetic beads and the nascent ANA or FANA strand eluted using two washes in 30 mM NaOH. The single stranded products were neutralised, ethanol precipitated and used as a template to screen a panel of commercial polymerases as well as in-house engineered polymerases for RT activity.
We have learnt that RT-521 must be removed before PCR as even low concentrations of RT-521 inhibit PCR. In this case, the reverse transcription reactions were purified by Exol (NEB) treatment to remove unextended primers and 0.05 volumes (1 μl out of 20 μl reaction) were used as template for 20 μl PCR with FastStart Taq (Roche). If the reactions had been purified by a method which removed RT-521 (e.g. silica column or phenol:chloroform extraction) the PCR for the RT-521 reaction would have been expected to be positive, as observed in other experiments (FIG. 19).

[4] = system: arabinosyl-NTPs, DNA template; assay: Polymerase dilution experiment, ANA synthesis, D4 vs D4K; format: biochemical
Procedure: In this experiment, the concentration of buffer (1× Thermopol (NEB) buffer), arabinosyl-NTPs (0.25 mM each), primer (200 nM), template (400 nM), the reaction volume ([…]) and extension conditions (1 min 94° C., 30 sec 50° C., 2 min 65° C.) were held constant.

[5] = system: arabinosyl-NTPs, DNA template; assay: Polymerase dilution experiment, ANA synthesis, D4K vs D4K521; format: biochemical; settings: for polymerase concentration at which full-length (+57 nt) ANA product is present: 0.125 mM each arabinosyl-NTP, 1 min 94° C., 30 sec 50° C., 2 min 65° C.
Procedure: In this experiment, the concentration of buffer (1× Thermopol (NEB) buffer), arabinosyl-NTPs (0.125 mM each), primer (200 nM), template (400 nM), the reaction volume ([…]) and extension conditions (1 min 94° C., 30 sec 50° C., 2 min 65° C.) were held constant.

[6] = system: faNTP, DNA template; assay: FANA synthesis by D4YK; format: biochemical
Procedure: (a) FANA synthesis at reduced faNTP concentrations. […] (b) Timecourse of YtRtemp8 (encoding 98 nt incorporations) synthesis by D4YK, showing substantial full-length synthesis in only 5 min. (c) Timecourse of ApLib5 (encoding 78 nt incorporations, of which 40 are random nucleotides) synthesis by D4YK, again showing substantial full length product in only 5 min.
Not only is FANA synthesis effective at relatively low FANA-NTP (faNTP) concentrations (less than 50 μM each, compared to 250 μM each for ANA synthesis) but synthesis of both a […] incorporation tRNA and an N40 library is efficient in less than 5 minutes (FIG. 15). This rapid synthesis and toleration of a wide range of substrate concentrations is indicative of an efficient polymerase, but neither single incorporation kinetics nor processivity have been investigated for D4YK.

Row | Molecule | IC50 [1] | IC50 [2] | FANA RT activity [3] | also measured
1 | Nc1ccn([C@@H]2O[C@H](CO)C(O)C2O)c(=O)n1 (stereo partly drawn) [AraC, 9-beta-D-arabinofuranosyl-cytidine] | 22.7 nM | 12.9 nM | – | –
2 | Nc1nc2c(ncn2[C@@H]2O[C@H](CO)C(O)C2O)c(=O)[nH]1 (stereo partly drawn) [AraG, 9-beta-D-arabinofuranosyl-guanosine] | ~100000 nM | 884 nM | – | –
3 | Nc1nc(Cl)nc2c1ncn2[C@@H]1O[C@H](CO)[C@@H](O)[C@@H]1F [Clofarabine, 9-beta-D-fluoroarabinosyl-2′chloroadenosine] | 18 nM | 20 nM | – | –
4 | Nc1nc(F)nc2c1ncn2[C@@H]1O[C@H](CO)[C@@H](O)[C@@H]1O [Fludarabine, 9-beta-D-arabinofuranosyl-2′fluoroadenosine] | 1300 nM | 864 nM | – | –
5 | Nc1ccn([C@@H]2O[C@H](CO)C(O)C2(F)F)c(=O)n1 (some centres unmarked) [GemC, 2′2′-difluorodeoxycytidine] | 1.6 nM | 11.7 nM | – | –
6 | B1 | – | – | weak FANA RT activity | –
7 | B2 | – | – | does have FANA RT activity; also recorded: effective FANA reverse transcriptase | –
8 | B3 | – | – | robust FANA RT activity | –
9 | B4 | – | – | weak RT activity | –
10 | B5 | – | – | – | polymerase concentration at which full-length (+57 nt) ANA product is present ([4]; 0.25 mM each arabinosyl-NTP, 1 min 94° C., 30 sec 50° C., 2 min 65° C.): 18.8 nM; polymerase concentration for full-length ANA product relative to D4 ([4]; fraction of the concentration required for D4): less than 1/15; polymerase concentration at which full-length (+57 nt) ANA product is present [5]: 18.8 nM; time for efficient FANA synthesis ([6]; 97 nt incorporation tRNA and N40 library): less than 5 minutes; time to substantial full-length FANA product ([6]; ApLib5 (78 nt incorporations, 40 random)): 5 min; time to substantial full-length FANA synthesis ([6]; YtRtemp8 (98 nt incorporations)): 5 min; faNTP concentration down to which FANA synthesis remains robust ([6]; YtRtemp9 (93 nt incorporations), each faNTP): ≥ 31.2 µM; FANA-NTP concentration at which FANA synthesis is effective ([6]; each faNTP, compared to 250 μM each for ANA synthesis): less than 50 μM
11 | B6 | – | – | – | polymerase concentration at which full-length (+57 nt) ANA product is present [5]: 2.3 nM; polymerase concentration for full-length ANA product relative to D4K ([5]; fraction of the concentration required for D4K): less than 1/8
12 | B7 | – | – | – | full-length (+57 nt) ANA product at 75 nM polymerase ([4]; 75 nM polymerase, 0.25 mM each arabinosyl-NTP): no full-length product; full-length (+57 nt) ANA product at 300 nM polymerase ([4]; 300 nM polymerase, 0.25 mM each arabinosyl-NTP): very little full-length
